Three substances from article PMC6588359 can be followed below.

In series [1] the test system is amyloid-β40 (Aβ40). Put plainly: native MS; native nano-ESI-IMS-MS, positive ionization; Aβ40 alone or 1:1 mol/mol with Aβ_(16–22); samples incubated 5 min at 37°C without agitation, analysed immediately following mixing.
Series [2] has as its target amyloid-β40 (Aβ40).

On to Aβ_(16–22), for which the “percent heterodimers by total ion count” value in the series on amyloid-β40 (Aβ40) [1] is 1.0 ± 0.5%.

Regarding Aβ_(16–22) (peptide), in the series with amyloid-β40 (Aβ40) [2], the ThT fluorescence: average t1/2 of Aβ40 aggregation with sonicated Aβ (16–22) fibrils was determined as 6.2 h and the ThT fluorescence: average t1/2 of Aβ40 aggregation with unfragmented (unsonicated) Aβ (16–22) fibrils is 7.2 h.

On to amyloid-β40 (Aβ40) (peptide), for which the stoichiometry N with amyloid-β40 (Aβ40) [1] is 1.
